# From US20220281936
# T1: Mouse IL12 (unmodified)
# T1 chain 1: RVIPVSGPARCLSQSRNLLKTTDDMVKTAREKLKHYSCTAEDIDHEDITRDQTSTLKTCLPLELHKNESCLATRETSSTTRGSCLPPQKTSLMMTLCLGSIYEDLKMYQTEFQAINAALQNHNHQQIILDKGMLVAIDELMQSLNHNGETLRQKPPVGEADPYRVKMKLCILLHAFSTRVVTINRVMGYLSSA
# T1 chain 2: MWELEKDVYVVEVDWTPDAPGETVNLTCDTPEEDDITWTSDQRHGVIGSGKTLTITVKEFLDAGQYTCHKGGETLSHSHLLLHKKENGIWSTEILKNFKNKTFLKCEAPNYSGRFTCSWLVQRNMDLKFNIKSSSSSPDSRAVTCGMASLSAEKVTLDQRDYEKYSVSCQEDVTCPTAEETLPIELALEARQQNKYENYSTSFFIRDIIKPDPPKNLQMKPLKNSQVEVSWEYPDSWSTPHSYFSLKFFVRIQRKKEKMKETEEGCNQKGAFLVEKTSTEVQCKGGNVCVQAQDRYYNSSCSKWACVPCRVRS
# How the values were obtained:
# [1] = target: T1, Mouse IL12 (unmodified)
# [2] = target: IL12Rβ1-VP-IL12
protein,measurement,setting,value
Recombinant mouse MMP9 (protein) FQTFKGLKWDHHNITYWIQNYSEDLPRDMIDDAFARAFAVWGEVAPLTFTRVYGPEADIVIQFGVAEHGDGYPFDGKDGLLAHAFPPGAGVQGDAHFDDDELWSLGKGVVIPTYYGNSNGAPCHFPFTFEGRSYSACTTDGRNDGTPWCSTTADYDKDGKFGFCPSERLYTEHGNGEGKPCVFPFIFEGRSYSACTTKGRSDGYRWCATTANYDQDKLYGFCPTRVDATVVGGNSAGELCVFPFVFLGKQYSSCTSDGRRDGRLWCATTSNFDTDKKWGFCPDQGYSLFLVAAHEFGHALGLDHSSVPEALMYPLYSYLEGFPLNKDDIDGIQYLYGRGSKPDPRPPATTTTEPQPTAPPTMCPTIPPTAYPTVGPTVGPTGAPSPGPTSSPSPGPTGAPSPGPTAPPTAGSSEASTESLSPADNPCNVDVFDAIAEIQGALHFFKDGWYWKFLNHRGSPLQGPFLTARTWPALPATLDSAFEDPQTKRVFFFSGRQMWVYTGKTVLGPRSLDKLGLGPEVTHVSGLLPRRLGKALLFSKGRVWRFDLKSQKVDPQSVIRVDKEFSGVPWNSHDIFQYQDKAYFCHGKFFWRVSFQNEVNKVDHEVNQVDDVGYVTYDLLQCP,"proteolytic cleavage, SDS-PAGE",[1],These enzymes had no effect on IL12 itself
same,"proteolytic cleavage, SDS-PAGE (30 min, 37 C)",[2],"MMP2 and MMP9 fully cleaved the IL12Rβ1 portion, yielding IL12 heterodimer (-60 kDa)"
